In publication PMC8373988 (2021):

Target: biotinylated-AviTag-haBiP^T229A-V461F (residues 27–635), unmodified (Chinese hamster, UniProt G3I8R9 27-635, T229A | V461F, biotin on the N-terminal Avi-tag)
Assay: BLI; ATP-bound BiP

Sequence of biotinylated-AviTag-haBiP^T229A-V461F (residues 27–635), unmodified (G3I8R9 27-635 T229A/V461F): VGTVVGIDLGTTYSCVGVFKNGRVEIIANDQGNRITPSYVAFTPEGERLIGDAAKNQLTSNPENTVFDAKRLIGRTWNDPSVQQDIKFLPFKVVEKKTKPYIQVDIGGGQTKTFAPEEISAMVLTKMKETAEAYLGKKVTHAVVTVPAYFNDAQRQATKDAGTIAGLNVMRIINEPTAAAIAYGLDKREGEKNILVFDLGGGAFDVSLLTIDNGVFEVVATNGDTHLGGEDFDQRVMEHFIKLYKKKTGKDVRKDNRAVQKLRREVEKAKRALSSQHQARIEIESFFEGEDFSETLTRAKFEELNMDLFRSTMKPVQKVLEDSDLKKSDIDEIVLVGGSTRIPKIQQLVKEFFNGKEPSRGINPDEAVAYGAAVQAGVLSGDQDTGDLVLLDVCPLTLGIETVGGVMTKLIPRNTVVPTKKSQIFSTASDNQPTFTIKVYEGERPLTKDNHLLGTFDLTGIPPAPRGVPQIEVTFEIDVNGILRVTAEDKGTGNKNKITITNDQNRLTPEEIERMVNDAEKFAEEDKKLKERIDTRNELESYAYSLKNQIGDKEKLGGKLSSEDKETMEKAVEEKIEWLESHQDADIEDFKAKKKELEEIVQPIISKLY

B1: isolated TPR domain of FICD (domain or fragment)
chain: LEARAALNQALEMKRQGKREKAQKLFMHALKMDPDFVDALTEFGIFSEEDKDIIQADYLYTRALTISPYH
Question: B1 was tested. Which koff did it give?
Answer: The koff was 0.176 s⁻¹.
